Laboratory results from IntAct's records for PubMed 29039417.

B1: BBSome complex member BBS1 (Homo sapiens), Q8NFJ9 (parent)
chain: MAAASSSDSDACGAESNEANSKWLDAHYDPMANIHTFSACLALADLHGDGEYKLVVGDLGPGGQQPRLKVLKGPLVMTESPLPALPAAAATFLMEQHEPRTPALALASGPCVYVYKNLRPYFKFSLPQLPPNPLEQDLWNQAKEDRIDPLTLKEMLESIRETAEEPLSIQSLRFLQLELSEMEAFVNQHKSNSIKRQTVITTMTTLKKNLADEDAVSCLVLGTENKELLVLDPEAFTILAKMSLPSVPVFLEVSGQFDVEFRLAAACRNGNIYILRRDSKHPKYCIELSAQPVGLIRVHKVLVVGSTQDSLHGFTHKGKKLWTVQMPAAILTMNLLEQHSRGLQAVMAGLANGEVRIYRDKALLNVIHTPDAVTSLCFGRYGREDNTLIMTTRGGGLIIKILKRTAVFVEGGSEVGPPPAQAMKLNVPRKTRLYVDQTLREREAGTAMHRAFQTDLYLLRLRAARAYLQALESSLSPLSTTAREPLKLHAVVQGLGPTFKLTLHLQNTSTTRPVLGLLVCFLYNEALYSLPRAFFKVPLLVPGLNYPLETFVESLSNKGISDIIKVLVLREGQSAPLLSAHVNMPGSEGLAAA
partner: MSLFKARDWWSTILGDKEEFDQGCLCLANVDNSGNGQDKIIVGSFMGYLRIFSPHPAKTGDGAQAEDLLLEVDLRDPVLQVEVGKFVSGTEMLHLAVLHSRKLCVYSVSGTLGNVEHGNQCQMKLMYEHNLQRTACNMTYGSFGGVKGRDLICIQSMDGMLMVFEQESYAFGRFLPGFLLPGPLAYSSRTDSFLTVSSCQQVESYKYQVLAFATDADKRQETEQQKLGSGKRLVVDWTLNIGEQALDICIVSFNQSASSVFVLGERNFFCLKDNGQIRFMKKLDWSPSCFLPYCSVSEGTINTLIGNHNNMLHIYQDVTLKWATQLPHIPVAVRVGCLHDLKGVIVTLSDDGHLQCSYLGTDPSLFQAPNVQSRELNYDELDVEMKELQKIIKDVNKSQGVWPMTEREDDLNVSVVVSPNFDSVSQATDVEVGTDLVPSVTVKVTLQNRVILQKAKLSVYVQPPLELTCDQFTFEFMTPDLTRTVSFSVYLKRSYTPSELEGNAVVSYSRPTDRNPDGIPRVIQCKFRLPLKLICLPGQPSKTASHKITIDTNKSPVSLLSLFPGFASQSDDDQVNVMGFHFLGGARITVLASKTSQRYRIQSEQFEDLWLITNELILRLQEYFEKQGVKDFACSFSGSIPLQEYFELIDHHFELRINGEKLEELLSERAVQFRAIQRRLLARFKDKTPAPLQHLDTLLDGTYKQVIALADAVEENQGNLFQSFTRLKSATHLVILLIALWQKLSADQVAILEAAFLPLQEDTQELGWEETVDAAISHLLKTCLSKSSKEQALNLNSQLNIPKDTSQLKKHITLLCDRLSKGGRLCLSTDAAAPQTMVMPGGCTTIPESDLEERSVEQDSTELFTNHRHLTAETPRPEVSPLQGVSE

Variants of: B1
Settings: with pthb1_human BBS9, Q3SYG4

Row | Variant | effect of a mutation on the interaction
1 | S413E | with no effect
2 | S413K | with no effect
3 | E414A | with no effect
4 | E414K | with no effect
5 | V415A | with no effect
6 | V415E | with no effect
7 | V415K | with no effect
8 | G416A | with no effect
9 | G416E | with no effect
10 | G416K | with no effect
11 | P417A | with no effect
12 | P417E | with no effect
13 | P417K | with no effect
14 | P418A | with no effect
15 | P418E | with no effect
16 | P418K | with no effect
17 | P419A | with no effect
18 | P419E | with no effect
19 | P419K | with no effect
20 | A420E | with no effect
21 | A420K | with no effect
22 | Q421A | with no effect
23 | Q421E | with no effect

Row | Variant | effect of a mutation on the interaction
24 | Q421K | with no effect
25 | A422E | with no effect
26 | A422K | with no effect
27 | M423A | with no effect
28 | M423E | with no effect
29 | M423K | with no effect
30 | K424A | with no effect
31 | K424E | with no effect
32 | L425A | with no effect
33 | L425E | with no effect
34 | L425K | with no effect
35 | N426A | with no effect
36 | N426E | with no effect
37 | N426K | with no effect
38 | V427A | with no effect
39 | V427E | with no effect
40 | V427K | with no effect
41 | P428A | with no effect
42 | P428E | with no effect
43 | P428K | with no effect
44 | R429A | with no effect
45 | R429E | with no effect
46 | R429K | with no effect

Row | Variant | effect of a mutation on the interaction
47 | K430A | with no effect
48 | K430E | with no effect
49 | K430M | disrupting interaction strength
50 | T431A | with no effect
51 | T431E | with no effect
52 | T431K | with no effect
53 | R432A | with no effect
54 | R432E | with no effect
55 | R432K | with no effect
56 | R432L | disrupting interaction strength
57 | L433A | with no effect
58 | L433E | with no effect
59 | L433K | with no effect
60 | Y434A | with no effect
61 | Y434E | with no effect
62 | Y434K | with no effect
63 | V435A | with no effect
64 | V435E | with no effect
65 | V435K | with no effect
66 | V435L | disrupting interaction strength
67 | D436A | disrupting interaction strength
68 | D436E | with no effect
69 | D436K | with no effect

Row | Variant | effect of a mutation on the interaction
70 | Q437A | with no effect
71 | Q437E | with no effect
72 | Q437K | with no effect
73 | T438A | with no effect
74 | T438E | with no effect
75 | T438K | with no effect
76 | L439A | with no effect
77 | L439E | with no effect
78 | L439K | with no effect
79 | R440A | with no effect
80 | R440E | with no effect
81 | R440K | with no effect
82 | E441A | with no effect
83 | E441K | with no effect
84 | R442A | with no effect
85 | R442E | with no effect
86 | R442K | with no effect
87 | E443A | with no effect
88 | E443K | with no effect
89 | A444E | with no effect
90 | A444K | with no effect
91 | G445A | with no effect
92 | G445E | with no effect

Row | Variant | effect of a mutation on the interaction
93 | G445K | with no effect
94 | T446A | with no effect
95 | T446E | with no effect
96 | T446K | with no effect
97 | A447E | with no effect
98 | A447K | with no effect
99 | M448A | with no effect
100 | M448E | with no effect
101 | M448K | with no effect
102 | H449A | with no effect
103 | H449E | with no effect
104 | H449K | with no effect
105 | R450A | with no effect
106 | R450E | with no effect
107 | R450K | with no effect
108 | A451E | with no effect
109 | A451K | with no effect
110 | F452A | with no effect
111 | F452C | disrupting interaction strength
112 | F452E | with no effect
113 | F452K | with no effect
114 | Q453A | with no effect
115 | Q453E | with no effect

Row | Variant | effect of a mutation on the interaction
116 | Q453K | with no effect
117 | T454A | with no effect
118 | T454E | with no effect
119 | T454K | with no effect
120 | D455A | with no effect
121 | D455E | with no effect
122 | D455K | with no effect
123 | L456A | with no effect
124 | L456E | with no effect
125 | L456K | with no effect
126 | Y457A | with no effect
127 | Y457E | with no effect
128 | Y457K | with no effect
129 | L458A | with no effect
130 | L458E | with no effect
131 | L458K | with no effect
132 | L459A | with no effect
133 | L459E | with no effect
134 | L459K | with no effect
135 | L459S | disrupting interaction strength
136 | R460A | with no effect
137 | R460E | with no effect
138 | R460K | with no effect

Row | Variant | effect of a mutation on the interaction
139 | L461A | with no effect
140 | L461E | with no effect
141 | L461K | with no effect
142 | R462A | with no effect
143 | R462E | with no effect
144 | R462K | with no effect
145 | A463E | disrupting interaction strength
146 | A463K | disrupting interaction strength
147 | A464E | with no effect
148 | A464K | with no effect
149 | R465A | with no effect
150 | R465E | with no effect
151 | R465K | with no effect
152 | A466E | with no effect
153 | A466K | with no effect
154 | Y467A | with no effect
155 | Y467E | with no effect
156 | Y467K | with no effect
157 | L468A | with no effect
158 | L468E | with no effect
159 | L468K | with no effect
160 | Q469A | with no effect
161 | Q469E | with no effect

Row | Variant | effect of a mutation on the interaction
162 | Q469K | with no effect
163 | A470E | with no effect
164 | A470K | with no effect
165 | L471A | with no effect
166 | L471E | with no effect
167 | L471F | disrupting interaction strength
168 | L471K | with no effect
169 | E472A | with no effect
170 | E472K | with no effect
171 | S473A | with no effect
172 | S473E | with no effect
173 | S473K | with no effect
174 | S474A | with no effect
175 | S474E | with no effect
176 | S474K | with no effect
177 | L475A | with no effect
178 | L475E | with no effect
179 | L475K | with no effect
180 | S476A | with no effect
181 | S476E | with no effect
182 | S476K | with no effect
183 | P477A | with no effect
